Assay results published in patent US11198713B2, “Agents modulating beta-catenin functions and methods thereof” (FOG PHARMACEUTICALS, INC., priority 2017, dated 2021).
Numbered stars: 1 amine (or outer) side, 2 acyl side, 3 side chain; on linkers, the order of the positions; unused ones are H or OH. Bridge positions count the residues as written; N and C are the ends. Square brackets hold non-standard residues; d marks the D form. Primed or numbered codes have the meaning given here. Peptide text beside a SMILES is read from it. * marks the point of attachment. MB = Monomer B = PyrS, Alloc-pyrrolidine stapling residue (allyl carbamate on pyrrolidine N); MB(12) = Monomer B (PyrS), pyrrolidine stapling residue with N-allyl carbamate; MC(3) = Monomer C (PyrR), pyrrolidine stapling residue with N-allyl carbamate; MI = Monomer I = ReN, acyclic amine-bearing olefin stapling residue; MD = Monomer D = SgN, acyclic Alloc-amine olefin stapling residue; R6 = (R)-2-(5-hexenyl)alanine, C=CCCCC[C@@](C)(N[*:1])C(=O)[*:2]; S6 = (S)-2-(5-hexenyl)alanine, C=CCCCC[C@](C)(N[*:1])C(=O)[*:2]; MG = Monomer G = RdN, acyclic alkyl-N(Alloc) stapling residue; MC = Monomer C = PyrR, Alloc-pyrrolidine stapling residue; MA = Monomer A (Az), N-Alloc azetidine stapling residue; S7 = C[C@@](CCCCCC=[*:3])(N[*:1])C(=O)[*:2]; R8 = C=CCCCCCC[C@@](C)(N)C(=O)O; S8 = C=CCCCCCC[C@](C)(N)C(=O)O; R5 = C=CCCC[C@@](C)(N)C(=O)O; MB(7) = not defined here; Nle = CCCC[C@H](N)C(=O)O; Hex = hexyl, CCCCCC*; Octyl = CCCCCCCC*; βAla = NCCC(=O)O

T1: full-length beta-catenin (UniProt P35222 2-781, limits assumed)
T1 construct: mature; also called full-length ß-Catenin; β-catenin
T1 sequence (looked up): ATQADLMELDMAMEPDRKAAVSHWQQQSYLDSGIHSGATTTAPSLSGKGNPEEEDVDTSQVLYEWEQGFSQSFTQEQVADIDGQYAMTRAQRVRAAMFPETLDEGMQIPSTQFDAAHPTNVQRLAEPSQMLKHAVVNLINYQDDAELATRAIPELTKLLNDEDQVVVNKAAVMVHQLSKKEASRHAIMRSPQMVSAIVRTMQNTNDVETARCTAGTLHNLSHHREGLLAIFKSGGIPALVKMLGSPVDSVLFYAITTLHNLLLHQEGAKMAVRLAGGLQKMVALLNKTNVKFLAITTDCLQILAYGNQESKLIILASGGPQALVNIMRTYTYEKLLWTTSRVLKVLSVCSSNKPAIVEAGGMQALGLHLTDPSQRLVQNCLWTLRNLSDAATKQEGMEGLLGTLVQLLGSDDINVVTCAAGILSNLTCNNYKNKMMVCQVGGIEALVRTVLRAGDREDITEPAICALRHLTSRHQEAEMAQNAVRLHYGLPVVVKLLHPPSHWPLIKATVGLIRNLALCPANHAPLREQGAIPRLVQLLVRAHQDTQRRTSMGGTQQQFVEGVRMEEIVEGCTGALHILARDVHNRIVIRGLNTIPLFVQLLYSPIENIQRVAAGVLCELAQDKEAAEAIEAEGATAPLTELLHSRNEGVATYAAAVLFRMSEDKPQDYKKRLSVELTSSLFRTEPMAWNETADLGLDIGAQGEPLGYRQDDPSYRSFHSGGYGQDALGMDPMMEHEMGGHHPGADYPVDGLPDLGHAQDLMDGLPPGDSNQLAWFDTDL

T2: biotinylated beta-catenin (UniProt P35222 134-665, limits assumed, biotinylated (site not stated))
T2 construct: also called beta-catenin (SPR); armadillo domain of β-catenin
T2 sequence (looked up): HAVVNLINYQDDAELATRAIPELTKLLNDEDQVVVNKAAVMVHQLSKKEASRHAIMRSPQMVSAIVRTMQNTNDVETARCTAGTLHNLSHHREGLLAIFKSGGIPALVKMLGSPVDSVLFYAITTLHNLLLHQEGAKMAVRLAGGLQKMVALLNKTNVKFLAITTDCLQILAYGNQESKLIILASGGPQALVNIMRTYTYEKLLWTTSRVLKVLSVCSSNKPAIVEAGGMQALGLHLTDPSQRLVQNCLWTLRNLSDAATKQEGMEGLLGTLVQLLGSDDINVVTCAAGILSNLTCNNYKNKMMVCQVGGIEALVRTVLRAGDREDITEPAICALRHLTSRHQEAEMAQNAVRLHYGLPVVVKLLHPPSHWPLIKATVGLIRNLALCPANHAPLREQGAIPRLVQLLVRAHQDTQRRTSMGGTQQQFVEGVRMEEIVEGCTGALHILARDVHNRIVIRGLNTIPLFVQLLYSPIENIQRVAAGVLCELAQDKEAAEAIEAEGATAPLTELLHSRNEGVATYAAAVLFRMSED

B1: FP0776a (peptide)
peptide: Ac-PQ[R5]ILD[MG]HVRRVWR-NH2
modifications: staple 3-7; also: amino staple (-N(R')-), from carbamate staple by metathesis then Pd(0) CO2 extrusion
notes: also called FP-0776 (amino staple)
B2: FP0777a (peptide)
peptide: Ac-PQ[R5]ILD[MI]HVRRVWR-NH2
modifications: staple 3-7; also: amino staple (-N(R')-), from carbamate staple by metathesis then Pd(0) CO2 extrusion
notes: also called FP-0777 (amino staple)
B3: FP0725a (peptide)
peptide: Ac-PQ[MA]ILD[R6]HVRRVWR-NH2
modifications: staple 3-7; also: amino staple: CO2 extruded from MA carbamate staple with Pd(PPh3)4
notes: also called FP-0725 (amino staple)
B4: FP0735a (peptide)
peptide: Ac-PQ[R6]ILD[MA]HVRRVWR-NH2
modifications: staple 3-7; also: amino staple: CO2 extruded from carbamate staple with Pd(PPh3)4
notes: also called FP-0735 (amino staple)
B5: FP0763a (peptide)
peptide: Ac-PQ[S7]ILD[MB(7)]HVRRVWR-NH2
modifications: staple 3-7; reading uncertain; also: amino staple: CO2 extruded from carbamate staple with Pd(PPh3)4
notes: also called FP-0763 (amino staple)
B6: FP0767a (peptide)
peptide: Ac-PQ[R6]ILD[MC]HVRRVWR-NH2
modifications: staple 3-7; also: amino staple (-N(R')-), from carbamate staple by metathesis then Pd(0) CO2 extrusion
notes: also called FP-0767 (amino staple)
B7: FP0338c (peptide)
peptide: Ac-A[R8]ILDAHI[MD]RVW-NH2
modifications: staple 2-9
B8: FP0509c (peptide)
peptide: AXILDAHIXRVW
modifications: not fully specified; Ac-A-R4-I-L-D-A-H-I-MH-R-V-W-NH2; carbamate staple R4/MH
B9: FP0217c_bAfree (peptide)
peptide: H-[βAla]A[R8]ILDAHI[MB]RVW-NH2
modifications: staple 3-10
B10: FP0736a (peptide)
peptide: Ac-PQ[S6]ILD[MA]HVRRVWR-NH2
modifications: staple 3-7; also: amino staple: CO2 extruded from carbamate staple with Pd(PPh3)4
notes: also called FP-0736 (amino staple)
B11: FP0738a (peptide)
peptide: Ac-PQ[S7]ILD[MA]HVRRVWR-NH2
modifications: staple 3-7; also: amino staple: CO2 extruded from carbamate staple with Pd(PPh3)4
notes: also called FP-0738 (amino staple); S7/Az
B12: FP0745a (peptide)
peptide: Ac-PQ[MC]ILD[R6]HVRRVWR-NH2
modifications: staple 3-7; also: amino staple: CO2 extruded from carbamate staple with Pd(PPh3)4
notes: also called FP-0745 (amino staple); PR/R6

These molecules were tested against T1, full-length beta-catenin (assay: competition FP; amino staple (acyclic)). Conditions: not given.
Method: (§1) In some embodiments, a competition fluorescence polarization assay is used to assess binding of provided compounds to beta-catenin. In an exemplary procedure, solutions of provided compounds, e.g., provided stapled peptides, were prepared in a buffer (e.g., 50 mM Tris pH 8.0, 250 mM NaCl, 2% glycerol, 0.5 mM EDTA, 0.02% w/v sodium azide) using a 3-fold serial dilution from 5 µM. Probe solution (15 nM full-length ß-Catenin, 20 nM FITC labeled peptide in buffer) was prepared and incubated for a period of time, e.g., 5 minutes, and the a volume, e.g., 40 µL per well plated in suitable plate, e.g., a black polystyrene 384-well plate (Corning). Equal volume of the serial diluted peptide was added to the plate and incubated protected from light for 15 minutes prior to read. Reads were performed on a Spectramax M5 (Molecular Devices) in duplicate. Suitable probe was FITC-PEG1-PQ-S5-ILD-S5-HVRRVWR (SEQ ID NO: 1) (hydrocarbon staple formed by two S5 via olefin metathesis) and/or FITC-bA-PQ-S5-ILD-S5-HVRRVWR (SEQ ID NO: 3) (hydrocarbon staple formed by two S5 via olefin metathesis). […] Another peptide, FPO217c (Ac-AR_8ILDAHIM$B5$RVW (SEQ ID NO: 280), with N-terminal proline removed and valine replaced with isoleucine compared to FP0025c) was prepared.

Molecule | EC50
B1 | 580 nM
B2 | 4750 nM

The molecules below were run against T1, full-length beta-catenin (assay: competition FP, grade of FP EC50 (+: 500-5000 nM)). Conditions: not given.
Method: as §1

Molecule | FP EC50
B3 | 500 to 5000 nM
B4 | 500 to 5000 nM
B5 | 500 to 5000 nM
B6 | 500 to 5000 nM
B1 | 500 to 5000 nM
B2 | 500 to 5000 nM

These molecules were tested against T2, biotinylated beta-catenin (assay: Table 3 'Binding Kd (nM)'; method not stated there (SPR in Example 2)). Conditions: not given.
Method: (§2) Additionally or alternatively, binding to beta-catenin may be measured by Surface Plasmon Resonance. In an exemplary assay, approximately 6 nmol dried peptide diluted in buffer (50 mM Tris pH 8.0, 300 mM NaCl, 2% glycerol, 0.5 mM TCEP, 0.5 mM EDTA, 0.005% Tween-20, 1 mg/mL CM Dextran, 0.02% w/v sodium azide) was assayed on a Biacore X100 using the Biacore Biotin CAPture Kit (GE Healthcare) and biotinylated beta-catenin. Results were analyzed using the Biacore X100 Evaluation Software.

Molecule | Kd
B7 | 10 nM
B8 | 3 nM

What follows are molecules tested against T1, full-length beta-catenin (assay: competition FP, grade of FP EC50 (+++: <=100 nM)). Conditions: not given.
Summary of the method: (§3)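 Compound 3-fold serially diluted from 5 µM in Tris pH 8.0, 250 mM NaCl buffer, added to premixed 15 nM full-length β-catenin and 20 nM FITC-labelled stapled axin-site peptide probe. Incubated 15 min in the dark, polarization read in duplicate.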

Molecule | FP EC50
B8 | ≤ 100 nM
B9 | ≤ 100 nM

These molecules were tested against T1, full-length beta-catenin (assay: competition FP; amino staple (cyclic)). Conditions: not given.
Method: as §1

Molecule | EC50
B3 | 580 nM
B4 | 2360 nM
B10 | 470 nM
B11 | 200 nM
B12 | 210 nM
B5 | 1110 nM
B6 | 700 nM

Each molecule was assayed against T1, full-length beta-catenin (assay: competition FP, grade of FP EC50 (++: 100-500 nM)). Conditions: not given.
Summary of the method: as §3

Molecule | FP EC50
B10 | 100 to 500 nM
B11 | 100 to 500 nM
B12 | 100 to 500 nM
B7 | 100 to 500 nM

What follows are molecules tested on TCF/LEF Luciferase reporter HEK293 cell lines (assay: TCF/LEF reporter assay). Conditions: Table 2.
Format: cell-based
Method: FIG. 2. […] FIG. 2 depicts exemplary data from TCF/LEF reporter assays. Y-axes illustrate luminescence, and X-axes illustrate concentrations of peptides. […] TCF/LEF Luciferase reporter HEK293 cell lines (BPS Bioscience) were treated with dilution series of FP0025c and FP00217c Isomer 2 for 18 hours. 300 ng/mL of Wnt3a (Peprotech) was added to the cells for the final 6 hours of incubation. Luciferase activity was measured using Bright-Glo Luciferase Assay (Promega) according to manufacturer's protocol.
In some embodiments, a provided assay is a TCF/LEF reporter assay. In some embodiments, in an exemplary such assay, TCF/LEF Luciferase reporter HEK293 cell lines (BPS Bioscience) were treated with dilution series of provided peptides for 18 hours. 300 ng/mL of Wnt3a (Peprotech) was added to the cells for the final 6 hours of incubation. Luciferase activity was measured using Bright-Glo Luciferase Assay (Promega) according to manufacturer's protocol. […] Applicant also notes that teachings of the present disclosure are not restricted to a particular mechanism of action of described agents.

Molecule | TCF/LEF Reporter Inhibition at 10 μM
0ct-P-A-R8-I-L-D-A-H-V-MB-R-V-W-1NH2 (Octyl-PA[R8]ILDAHV[MB(12)]RVW-NH2; staple 3-10) [FP0324c] | 51%
CC[C@H](C)[C@H](NC(=O)[C@H](CO)NC(=O)[C@H](C)NC(=O)[C@@H]1CCCN1C(C)=O)C(=O)N[C@@H](CC(C)C)C(=O)N[C@@H](CC(=O)O)C(=O)N[C@@H](C)C(=O)N[C@@H](Cc1c[nH]cn1)C(=O)N[C@H](C(=O)N[C@@H](CCC(N)=O)C(=O)N[C@@H](CCCNC(=N)N)C(=O)N[C@H](C(=O)N[C@@H](Cc1c[nH]c2ccccc12)C(N)=O)C(C)C)C(C)C [FP0098, Ac-P-A-S-I-L-D-A-H-V-Q-R-V-W-NH2] (Ac-PASILDAHVQRVW-NH2) | 18%
CCCC[C@H](NC(=O)[C@@H](NC(=O)[C@H](CCCNC(=N)N)NC(=O)[C@H](CCC(N)=O)NC(=O)[C@@H](NC(=O)[C@H](Cc1c[nH]cn1)NC(=O)[C@H](CCC(=O)O)NC(=O)[C@H](CC(=O)O)NC(=O)[C@H](CC(C)C)NC(=O)[C@@H](NC(=O)[C@H](CO)NC(=O)[C@H](CCC(=O)O)NC(=O)[C@@H]1CCCN1C(C)=O)[C@@H](C)CC)C(C)C)C(C)C)C(=O)N[C@@H](CCCCN)C(N)=O [FP0110, Ac-P-E-S-I-L-D-E-H-V-Q-R-V-nL-K-NH2] (Ac-PESILDEHVQRV[Nle]K-NH2) | 19%
Ac-P-A-MC-I-L-D-A-H-V-S8-R-V-W-NH2 (Ac-PA[MC(3)]ILDAHV[S8]RVW-NH2; staple 3-10) [FP0099] | 38%
Hex-P-A-R8-I-L-D-A-H-V-MB-R-V-W-NH2 (Hex-PA[R8]ILDAHV[MB(12)]RVW-NH2; staple 3-10) [FP0325c] | 73%

These molecules were tested against T2, biotinylated beta-catenin (assay: SPR (Biacore, biotinylated beta-catenin)). Conditions: not given.
Method: as §2

Molecule | Kd
B8 | 3 nM
B9 | 9 nM
